Blank lines part the entries; values can stand above or below the molecule they belong to.
Tests used:
[1] = target: TMEM16A-GFP fusion protein on HEK293 stable cells (UniProt Q5XXA6); experiment: flow cytometry on HEK293-TMEM16A cells
SP31 ab64085 = experiment: peptide blocking of SP31 ab64085, western blot of TMEM16A
[2] = target: T1, peptide 44 (linear 15-mer of the ECD1-3 library) (human); experiment: peptide microarray (RepliTope), linear 15-mer
T1 sequence (peptide): VQISRYKDYREPPWS

[3] = target: T2, peptide 45 (linear 15-mer of the ECD1-3 library) (human); experiment: peptide microarray (RepliTope), linear 15-mer
T2 sequence (peptide): SRYKDYREPPWSENK

[4] = target: T3, peptide 46 (linear 15-mer of the ECD1-3 library) (human); experiment: peptide microarray (RepliTope), linear 15-mer
T3 sequence (peptide): KDYREPPWSENKYDI

[5] = target: peptide 46 (cyclic, flanked by cysteines, second library) (human); experiment: peptide microarray (RepliTope), cyclic peptide
[6] = target: peptide 44 (cyclic, flanked by cysteines, second library) (human); experiment: peptide microarray (RepliTope), cyclic peptide
[7] = target: peptide 45 (cyclic, flanked by cysteines, second library) (human); experiment: peptide microarray (RepliTope), cyclic peptide

Sequence of UniProt Q5XXA6 (Q5XXA6 whole entry, the tested form may be a part): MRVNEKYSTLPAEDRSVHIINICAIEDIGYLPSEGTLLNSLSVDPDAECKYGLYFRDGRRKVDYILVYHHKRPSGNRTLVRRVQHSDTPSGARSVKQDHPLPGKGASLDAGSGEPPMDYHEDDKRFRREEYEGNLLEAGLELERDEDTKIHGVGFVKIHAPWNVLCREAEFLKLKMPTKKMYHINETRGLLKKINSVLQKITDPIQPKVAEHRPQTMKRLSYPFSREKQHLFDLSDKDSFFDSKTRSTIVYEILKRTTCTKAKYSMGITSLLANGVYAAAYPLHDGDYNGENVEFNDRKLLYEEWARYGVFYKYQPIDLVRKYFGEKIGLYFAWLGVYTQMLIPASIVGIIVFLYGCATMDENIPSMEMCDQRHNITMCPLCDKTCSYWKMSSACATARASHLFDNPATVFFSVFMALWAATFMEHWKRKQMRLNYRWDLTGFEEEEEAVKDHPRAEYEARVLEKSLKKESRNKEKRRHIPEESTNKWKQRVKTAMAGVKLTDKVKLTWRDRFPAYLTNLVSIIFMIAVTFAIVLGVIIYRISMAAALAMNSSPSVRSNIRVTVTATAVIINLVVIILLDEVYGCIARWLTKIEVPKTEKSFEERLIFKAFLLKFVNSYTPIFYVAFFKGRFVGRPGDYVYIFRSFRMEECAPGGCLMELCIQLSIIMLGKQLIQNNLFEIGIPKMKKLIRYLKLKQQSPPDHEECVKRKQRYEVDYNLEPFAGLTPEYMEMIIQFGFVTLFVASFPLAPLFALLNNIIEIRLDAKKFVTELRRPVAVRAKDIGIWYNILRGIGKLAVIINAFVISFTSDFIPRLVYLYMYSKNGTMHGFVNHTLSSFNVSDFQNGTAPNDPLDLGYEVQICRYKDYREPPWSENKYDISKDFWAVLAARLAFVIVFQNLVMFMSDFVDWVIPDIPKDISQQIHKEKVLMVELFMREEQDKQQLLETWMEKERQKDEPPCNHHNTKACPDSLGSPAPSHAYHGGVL

median fluorescence intensity [1]: 93
Molecule: isotype control antibody (flow cytometry with 12E11)

peptide concentration at which pre-incubation blocked the western blot signal (SP31 ab64085): 0.01 µg/mL
Molecule: DHEECVKRKQRYEVDYNLE [Peptide #2]

signal over background signal (after subtraction of the signals of the unrelated antibody) [2]: 3 times | signal over background signal (after subtraction of the signals of the unrelated antibody) [3]: > 3 times | signal (AU, arbitrary unit) [4]: 15000 AU | signal over background signal (after subtraction of the signals of the unrelated antibody) [4]: > 3 times | signal (AU, arbitrary unit) [5]: 15000 AU | signal over background signal (after subtraction of the signals of the unrelated antibody) [5]: > 3 times | signal over background signal (after subtraction of the signals of the unrelated antibody) [6]: > 3 times | signal over background signal (after subtraction of the signals of the unrelated antibody) [7]: > 3 times
B1: 12E11 (antibody, V domains shown)
VH: QVQLKESGPGLVQPSQTLTLTCTVSGFSLSNYDMHWVRQSPGKGLDWMGVIWGNGKTQYNSGLTSRLSISRDTSKSQVFLKMNSLQTEDTAIYFCTRSGYYYDGSYYSLFDYWGQGVMVTVSS
VL: DVVLTQTPPTLSATIGQSVSISCRSSQSLLHSNGNTYLNWLLQRPGQPPQLLIYLVSRLESGVPNRFSGSGSGTDFTLKISGVEAEDLGVYYCVQSTHAPAFGGGTKLELK

From patent WO2014084859A1
